This is an account of results in patent US20210388097A1 (SORRENTO THERAPEUTICS, published 2021).

The assay addresses T1, human APRIL protein (R&D Systems, catalog #5860-AP-010/CF) (human, UniProt O75888 105-250, limits assumed).
T1 construct: Bought protein; also called human APRIL protein from R&D Systems; TNF13
T1 sequence (looked up): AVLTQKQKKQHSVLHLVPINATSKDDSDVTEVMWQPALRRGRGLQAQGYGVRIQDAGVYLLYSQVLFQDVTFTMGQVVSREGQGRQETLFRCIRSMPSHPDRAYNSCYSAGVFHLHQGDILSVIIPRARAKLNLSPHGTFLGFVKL
Description: bio-layer interferometry, APRIL on AR2G sensor, BCMA-mouse Fc in solution. The procedure:
Bio-layer interferometry was also used to measure binding between APRIL protein, and wild type or mutant BCMA proteins. Human APRIL protein (R&D Systems, catalog #5860-AP-010/CF) was loaded onto an Ar2G sensor (OctetRET96e) and reacted with 2.5 μg/mL of one of three types of human BCMA proteins including: wild type human BCMA-mouse Fc (SEQ ID NO:5), mutant-1 human BCMA-mouse Fc (17G-18G; SEQ ID NO:6), or mutant-2 human BCMA-mouse Fc (de132-35G; SEQ ID NO:7).
For orientation: BLI is a label-free optical method that tracks binding on a fibre tip over time.

B1: Mutant-1 human BCMA protein-mouse Fc (Fc fusion)
chain: MLQMAGQCSQNEYFDSGGHACIPCQLRCSSNTPPLTCQRYCNASVTNSVKGTNAGLGGLVDYKDDDDKTHTCPPCKCPAPNLLGGPSVFIFPPKIKDVLMISLSPIVTCVVVDVSEDDPDVQISWFVNNVEVHTAQTQTHREDYNSTLRVVSALPIQHQDWMSGKEFKCKVNNKDLPAPIERTISKPKGSVRAPQVYVLPPPEEEMTKKQVTLTCMVTDFMPEDIYVEWTNNGKTELNYKNTEPVLDSDGSYFMYSKLRVEKKNWVERNSYSCSVVHEGLHNHHTTKSFSRTPGK
notes: also called mutant-1 human BCMA-mouse Fc (17G-18G); mutant-1 BCMA protein
Take B1: the binding result is given as “no binding (tested: 2.5 µg/mL)”.
